Protein production data for 31 sequences are collected here from a protein production outcome set (Wang et al. 2014).

This data set in a line: label from the status in PepcDB records.
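Note: failed if final PepcDB status was selected cloned or expressed and not failed if soluble or beyond.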

In the case of “GSGLDVKNLVDAIVTAEITPSQVRHDKQLNSVNTELSALGQLKSYLTNLQTSLAKLSSLSQFYTMKSTISDPNYFSATLGTGATKNTYQIEIQKLAQQHS”, the protein production entry was “failed”. For the sequence “GSHMKEDQVVAEEPGFQDEEESLFQDIDLLQKHGINVADIKKLKSVGICTIKGIQMTTRRALCNVKGLSEAKVDKIKEAANKLIEPGFLTAFEYSEKRKMVFHITTGSQEFDKLLGGGIESMAITEAFGEFRTGKTQLSHTLCVTAQLPGAGGYPGGKIIFIDTENTFRPDRLRDIADRFNVDHDAVLDNVLYARAYTSEHQMELLDYVAAKFHEEAGIFKLLIIDSIMALFRVDFSGRGELAERQQKLAQMLSRLQKISEEYNVAVFVTNQMTADPGATMTFQADPKKPIGGHILAHASTTRISLRKGRGELRIAKIYDSPEMPENEATFAITAGGIGDAKE”, the protein production result is on record as “not failed”. As for “GSSGSSGMCGRFAQSQTREDYLALLAEDIERDIPYDPEPIGRYNVAPGTKVLLLSERDEHLHLDPVFWGYAPGWWDKPPLINARVETAATSRMFKPLWQHGRAICFADGWFEWKKEGDKKQPFFIYRADGQPIFMAAIGSTPFERGDEAEGFLIVTAAADQGLVDIHDRRPLVLSPEAAREWMRQEISGKEASEIAASGCVPANQFSWHPVSRAVGNVKNQGAELIQPV”, the entry is “not failed”; as for “GSSGSSGMSSMTQNLREVMKVMFKVPGFDRVLEKVTLVSAAPEKLICEMKVEEQHTNKLGTLHGGLTATLVDSISTMALMCTERGAPGVSVDMNITYMSPAKIGEEIVITAHILKQGKTLAFASVDLTNKTTGKLIAQGRHTKHLGNSGPSSG”, “not failed”. In the case of “GSSGSSGPTMEGPLRRKTLLKEGRKPALSSWTRYWVVLSGATLLYYGAKSLRGTDRKHYKSTPGKKVSIVGWMVQLPDDPEHPDIFQLNNPDKGNVYKFQTGSRFHAILWHKHLDDACKSSRPQVPANLMSFE”, the protein production entry is “not failed”.

With “GSSGSSGSTVVMADVSQYHVNHLVTFCLGEEDGVHTVEDASRKLAVMDSQGRVWAQEMLLRVSPSQVTLLDPVSKEELESYPLDAIVRCDAVMPRGRSRSLLLLVCQEPERAQPDVHFFQGLLLGAELIREDIQGALQNYRSGRGERSGPSSG”, the protein production entry is reported as “not failed”.

In the case of “GTVLVSIKSSLPENNFFDDALIDELLQQFASFGEVILIRFVEDKMWVTFLEGSSALNVLSLNGKELLNRTITIALKSP”, the protein production result is listed as “not failed”. As for “GYDHKGMGITARGAWESVKRHFRALGRDCQNEDFRCIGVGDMSGDVFGNGMLLSRHSLLVAAFDHRHIFLDPMPDAALSFAERERLFKLPRSSWADYDATLISKGGGIYPRTLKSIQISPQVAEVLGLDKGIKQLSPNVLISAILKAPVDLFWNGGIGTYVKASSETHADVGDRANNALRVNGLELRCKVVGEGGNLGLTQLGRIEAAQRGVLLNTDFIDNSAGVDTSDHEVNIKILLNDVVQAKTLCFDARNALLASMTDDVAQLVLWDNIRQNQALSLMERMSVKRLGSKQHFIRTLERQGLLDRQIEFLPSDAELSARKARGLGL”, the entry is “failed”. With “GYTPQQLDSMVRKQDWMFLLSDRVKRSAMSLNEREKSEKYVFSFPFTKSPKDAVSGGIIKGQNLANLFTELTVGYHDSVDFNKLPIPFACVSQNIVNGEQIVFHNGILATAMRASMAIPGVFTPVRKDSMILIDGGMINNYPVDVARSMGADIIIGVDVQNNLKGID” the entry was “failed”; with “HDLALSGNAYKVRLFLSLIGREATLRPVDFLNREHKTQAFLRMNPRGQIPVLEDGELQLGDSHAILVYLARRHADPVWYPLDPVSQGRIAYWLSYSANEVQNGPASARLITRFNLPLDREQTHQRGLEVLRLVDRHLAEHRWLAQGEQPSIADVALYPYLALAPEGGLALDHYPALNAWIARIRALPGYIPMPGL”, “not failed”; with “HKEFAVTMRPTEASERCHLRGSYTLRAGESALELWGGPEPGTQLYDWPYRFLRRFGRDKVTFSFEAGRRCVSGEGNFEFETRQGNEIFLALEEAISAQKN”, “not failed”. With “HKSMSKMKSTLKQFISMGNMLTAENNFFRQMQGLLSETTEIAAMTGGIIFLADKQEGHFTPTAFRWNGENIPVAEMPSLSITEDSFTTFQPVLEGKTIAGTLNKENIFHQLQDFLQPYLPLRFVAVPMKTHDKQLLGFLLLFNPYQLNAEREHSKIQLVNALVGSLSVSVETQQLLQEQKNLLNA” the entry was “failed”. “HMARSLYPLGVSRSLPPYRRTFNHQTFIFVKSILRLGVSMEEEEFDIREALANGEHLEKILIMAKYDESVLKKLIELLDDDLWTVVKNAISIIMVIAKTREDLYEPMLKKLFSLLKKSEAIPLTQEIAKAFGQMAKEKPELVKSMIPVLFANYRIGDEKTKINVSYALEEIAKANPMLMASIVRDFMSMLSSKNREDKLTALNFIEAMGENSFKYVNPFLPRIINLLHDGDEIVRASAVEALVHLATLNDKLRKVVIKRLEELNDTSSLVNKTVKEGISRLLLLEGHSSS”: the protein production entry was “not failed”. With “HMPSVIVVGGQWGDEGKGSIVAYLSLHDEPEIIARGGVGTNAGHSVVINGKKYAVRQIPTGFMQTKARLLIGAGVLVDPEVFFHELEQLKDFNVKDRVGIDYRCAIIEEKHKQLDRTNGYLHGKIGTTGSGCGPANADRVMRKAKQAKDVKELEPYLTDVAQEINDALDEGSLVLVEGTQGFGLSLYYGTYPYVTSKDVTASSVAADVGIGPTRVDEVIVVFKSFPTRVGAGPFPTEMPMEEADRLGLVEYGTVTGRRRRVGWFDFEMARYSARINGATMLAVTMLDKYDKEAFGVTDYDKLPRKAKEFIEEIEERVGVPVGLIKTGPELEHIIDRRDTI” the entry was “not failed”; with “HNESIRYLIVPGWQGSPDDHWQAHWQNSLPNSTRVEQADWLKPRREDWVGELQRTIAAQSTPVILIAHSLGCVTVAHWAQLAPLETLRQVQGALLVAPADVERPNCPPALRNFAPIPADLLPFPTQVVSSDNDPAVSSQRAIEMARHWGAELGFLSQAGHINVKSGHQRWEQGFAYLYRLQNRLEQ”, “failed”. With “HPQYIVFCDFDETYFPHTIDEQKQQDIYELEDYLEQKSKDGELIIGWVTGSSIESILDKMGRGKFRYFPHFIASDLGTEITYFSEHNFGQQDNKWNSRINEGFSKEKVEKLVKQLHENHNILLNPQTQLGKSRYKHNFYYQEQDEINDKKNLLAIEKICEEYGVSVNINRCNPLAGDPEDSYDVDFIPIGTGKNEIVTFMLEKYNLNTERAIAFGDSGNDVRMLQTVGNGYLLKNATQEAKNLHNLITDSEYSKGITNTLKKLIGFMRR”, the protein production result is listed as “failed”.

In the case of “HQIVHVRGDSETDLEALFNAVMNPKTANVPQTVPMRLRKLPDSFFKPPEPKSHSRQASTDAGTAGALTPQHVRAHSSPASLQLGAVSPGTLTPTGVVSGPAATPTAQHLRQSS”, the protein production entry is given as “failed”.

Take “HRAQRQQMTVLRGDAQSIDIIDLQTFIDSFEEHIWVKNTEGVYTICNQSVEKAWDLPRSDIVGKTDEDLFGKAIADIFLNGDRLAIEAGAPIIVAECLDGENKNNHLWLETLKLPALTPDGELAGVIGMTRNISKHKEVEEQLTLATNVFKHSF”: the protein production result is given as “failed”. As for “HRYIPTLFFHGWGSSYHAETHMADAIVKAGKTQTIVRAMVAKNGTVTLKGHFRSGDYRPIVEVNFANNRSSDYPTVGRWAKNVVVALQRTYGITSFNMVGHSMGNMAITYYLLANAQNKRLPQLRQQVAIAGHFNGILGMDDSPNQMTLNAAGRPNKLRPAYRQLLGLRRVYPRQQVRVLNIYGDKGDGTHSDGSVSNASSRSLRYLVAARARSYREVKLTGKHAQHSQLHENAQVDRLLIDFLWPTH”, the entry is “not failed”; as for “HSEPSHQSKAVVELPHKQGMARLAAGLLHPDMTIYLDAGTSTLEIVPHIIALSGMTVVTNDFGVVNALADAAHVDVIHTGGLLDHPNRSSVGGLAAATLRQLATDVAFMSTSSWDLQRGTTTPSALKVEVKQAAMQSASQTVLVATSSKY”, “failed”.

Take “HTYKSLFVAPCDAGVKSIKDLKGKSVAFVDPASTSGGLMPTYMVKKETGMMPQQFFGKFTYSGSHDAAELAVKNKTVDAAADNDITYEKMLAKGLITKETNCVVKESDPLPGSPLVYRKDLPAATKKKIRDAILNAH”: the protein production result is “failed”. For the sequence “IDKKLTTLADLFRPPIDLMHKGSFETAKECGQMQNKWLMINIQNVQDFACQCLNRDVWSNEAVKNIIREHFIFWQVYHDSEEGQRYIQFYKLGDFPYVSILDPRTGQKLVEWHQLDVSSFLDQVTGFLGEHGQLDGLSSS”, the protein production result was “not failed”. With “IDPVMVAAFEGWNDAGDAASTAVAHLDREWKGEVFAALDAEDYYDFQVNRPTVWLDGGVRKITWPTTRLSVVRVGGEKPRDLVLVRGIEPSMRWRSFCNELLAFAHELGVELVVVLGALLGDTPHTRPVPVSGVTSDPDLARTMDLEETKYEGPTGIVGILQEACTHAGVPAVSLWAAVPHYVSQPPNPKATLALLNRLEDLIDVRIPLGELPEDARAWQVGVDQLAAEDSEVAEYVQSLEEARDTA” the entry was “not failed”. As for “IDRSTHFALRYRTLCHQQAQFKSPLRGLRGTRASLIPHQLHIAAEVGNRVNPRVLLADEVGLGKTIEAGMILQNQLFAEKVQRVLIIVPETLQHQWLVEMLRRFNLHFALFDEERCNDFDLDAVNPFTTESLIICSLNWLETHPNRVELVLNAQFDCLIVDEAHHLVWSETSPSTAYLLVEQLARIIPSVLLLTATPE”, the entry is “failed”. Take “IEEVYEATLDAIQGALNCDRASILLFDEAGTMRFVAARGLSEHYQRAVDGHSPWITGANEPEPIFVENVDDAEFSRELKESIVGEGIAALGFFPLVTEGRLIGKFMTYYDRPHRFADSEIGMALTIARQLGFSIQRMRAEYARRQAEE”: the protein production entry is given as “not failed”. As to “IEPEYFGEDAAENILIGWGSLEGAIKEAVNDLNKEGKEKYAALIFGDVWPLPEKLLREKASKAKTLIDVEQNAQGQLADIIREGTGIEVDKKILKYDGRPIMASYIVGRIKE”, the protein production entry was “not failed”. With “IESASDMIAAFGKDQRFITFNEAYQREFKRLFDKSISINMSLEEAFNNAPENKKKLVQSWKESLQRDEETKNIEVNTEQEKTIYEMTSKLIQNGDNEIKGVVHSVRNIT” the entry was “failed”; with “IEVSYHTPDGVPGVVMTTPKLDDGTPFPTLYYLTEPRLTAEASRLEVAHVMKWMTDRLHSDEELRQDYERAHEYFLAKRNALEDLGTDFSGGGMPDRVKCLHVLIAYALAEGPDHFRLGTEAVALA”, “failed”. Consider “IGPSSSHTMGPMTAANVFRDHVDQLVSQTPDDLNYRVYCVLKGSLAFTGRGHATDRAVALGLHGHSPVSLAGEDVNALTAKLWATDTLQLTSGREIGFNPEDDIVFDKSDPLPQHPNGMIFYLLDEEGKKILSETFFSIGGGFICTLAEINQ”, for which the protein production entry was “not failed”.

On to “IKATYETFSSPNGHGEGRGYLVMPQKKTIKSPTVLVIHENRGLNPYIKDVARRLAKDGFIAFAPDALYPLGGYPGNDDEGRAMQKEMDRAKIEQDFIAAAKFIKQHEHGNGKLGAVGFCFGGYVVNMLAAVMPNELDAGVPFYGTPAAEEIQKQVKGPLMLHFAGLDKRVNDTWPSYEQQLIASGAKYQALMYENVNHGFHNDSTARYAPEEAALAWERTLAFFKEHL”, for which the protein production result is “failed”.

Consider “IKAVFDPDNRLNPGKICPPEGIDAPMMKVDAAKRGTWDRQIPIAVRSSWRGAMECNGNGLCFNFDVKSPMCPSMKVSNQRIHSPKGRATLVREWLRLLADRGVDPNQLEKALPEQGVSLRSLVARTRNSWHARKGEYDFSHEVKEAMSGCLACKACSTQCPIKIDVPEFRSRFLQLYHSRYLRPVRD”, for which the protein production entry is given as “failed”.
